Consider 5 molecules from patent US20160362464A1 (University of California, published 2016).

The labels stand for the following.
B1: His-Gαi3 (GDP-loaded) (other, rat, UniProt P08753 1-354, looked up)
chain: MGCTLSAEDKAAVERSKMIDRNLREDGEKAAKEVKLLLLGAGESGKSTIVKQMKIIHEDGYSEDECKQYKVVVYSNTIQSIIAIIRAMGRLKIDFGEAARADDARQLFVLAGSAEEGVMTSELAGVIKRLWRDGGVQACFSRSREYQLNDSASYYLNDLDRISQTNYIPTQQDVLRTRVKTTGIVETHFTFKELYFKMFDVGGQRSERKKWIHCFEGVTAIIFCVALSDYDLVLAEDEEMNRMHESMKLFDSICNNKWFTDTSIILFLNKKDLFEEKIKRSPLTICYPEYTGSNTYEEAAAYIQCQFEDLNRRKDTKEVYTHFTCATDTKNVQFVFDAVTDVIIKNNLKECGLY
notes: also called recombinant His-Gαi3; not shown: His tag
B2: Gαi3-FLAG (other, rat, UniProt P08753 1-354, looked up)
chain: B1 chain
notes: Expressed in HEK293 or Cos7 cells; immunoprecipitated with anti-FLAG mAb; also called FLAG-Gαi3; not shown: FLAG tag
B3: His-DAPLE-CT (aa 1650-2028) (other)
chain: GTAPPYVGVRPCSASPSSEMVTLEEFLEESNRSSPTHDTPSCRDDLLSDYFRKASDPPAIGGQPGPPAKKEGAKMPTNFVAPTVKMAAPTSEGRPLKPGQYVKPNFRLTEAEAPPSVAPRQAQPPQSLSLGRPRQAPVPPASHAPASRSASLSRAFSLASADLLRASGPEACKQESPQKLGAPEALGGRETGSHTLQSPAPPSSHSLARERTPLVGKAGSSCQGPGPRSRPLDTRRFSLAPPKEERLAPLHQSATAPAIATAGAGAAAAGSGSNSQLLHFSPAAAPAARTKPKAPPRSGEVATITPVRAGLSLSEGDGVPGQGCSEGLPAKSPGRSPDLAPHLGRALEDCSRGSVSKSSPASPEPGGDPQTVWYEYGCV
notes: Recombinant, purified from E. coli; also called His-DAPLE-CT WT; DAPLE-CT WT; not shown: His tag and vector residues of pET28b
B4: GST-Gao (other, rat, UniProt P59215 1-354, looked up)
chain: MGCTLSAEERAALERSKAIEKNLKEDGISAAKDVKLLLLGAGESGKSTIVKQMKIIHEDGFSGEDVKQYKPVVYSNTIQSLAAIVRAMDTLGVEYGDKERKADSKMVCDVVSRMEDTEPFSAELLSAMMRLWGDSGIQECFNRSREYQLNDSAKYYLDSLDRIGAADYQPTEQDILRTRVKTTGIVETHFTFKNLHFRLFDVGGQRSERKKWIHCFEDVTAIIFCVALSGYDQVLHEDETTNRMHESLMLFDSICNNKFFIDTSIILFLNKKDLFGEKIKKSPLTICFPEYPGSNTYEDAAAYIQTQFESKNRSPNKEIYCHMTCATDTNNIQVVFDAVTDIIIANNLRGCGLY
notes: also called Gαo; not shown: glutathione S-transferase tag of the pGEX-4T-1 vector
B5: GST-GIV (aa 1671-1755) (other, UniProt Q3V6T2 1671-1755, looked up)
chain: IKTGSPGSEVVTLQQFLEESNKLTSVQIKSSSQENLLDEVMKSLSVSSDFLGKDKPVSCGLARSVSGKTPGDFYDRRTTKPEFLR
notes: range 1671-1755; also called GST-GIV CT 1671-1755 aa; not shown: glutathione S-transferase tag

Assay [1] concerns the target T1, GST-FZD7-CT (UniProt P08515 1-218 = GST).
T1 construct: Immobilized on glutathione beads directly from bacterial lysates; also called GST-FZD7R-CT; Fzl17-CT
In words: GST-FZD7-CT pulldown of His-Gαi3 with His-DAPLE-CT WT against His-Gαi3 alone (FIG. 4E).

Assay [2] deals with T2, GST-DAPLE-CT (human, UniProt Q9P219 1650-2028).
T2 construct: also called GST-DAPLE-CT WT; not shown: glutathione S-transferase tag of the pGEX-4T vector
T2 sequence: B3 chain
In words: GST pulldown with 0.01-3 µM His-Gαi3, band intensities fitted to a one-site binding curve (FIG. 1F).

For assay [3], the target named is T3, myc-DAPLE full length F1675A (human, UniProt Q9P219 1-2028).
T3 construct: Expressed in Cos7 cells; used as cell lysate; also called myc-DAPLE FA; DAPLE-FA; not shown: N-terminal myc tag of myc-pcDNA 3.1 (+)
In words: co-immunoprecipitation with anti-FLAG mAb from Cos7 cells (FIG. 2E).

For assay [4], the target named is B1. In words: cell-based or functional assay.
Assay [5] concerns the target T4, GST-Gαi3 preloaded with GDP (inactive) (rat, UniProt P08753 1-354).
T4 construct: Immobilized on glutathione beads; Same polypeptide as m11, other nucleotide state; also called GST-Gαi3 WT; not shown: glutathione S-transferase tag of the pGEX-4T-1 vector
In words: displacement of Gβγ from preformed GST-Gαi3·Gβγ complexes, immunoblot fitted to a single-site competition curve (FIG. 3C). The text has this: FIGS. 3A-3J. DAPLE's GBA motif triggers the release of ‘free’ Gβγ subunits, which in turn enhance Rac1 and PI3K-Akt signaling. (A) DAPLE's GBA motif and Gβγ subunits are predicted to dock onto an overlapping binding site on Gαi. Binding areas (in red) for DAPLE (left) or Gβγ (right) on Gαi (solid grey) were extracted from a homology-based model of DAPLE-Gαi3 and the crystal structure of the Gαi1·Gβγ complex (PBD: 1GG2), respectively. (B, C) DAPLE displaces Gβγ subunits from Gαi3 via its GEF motif. GST-Gαi3·Gβγ preformed complexes immobilized on glutathione beads were incubated with increasing concentrations of His-DAPLE-CT WT or F1675A (FA). Bound proteins were analyzed by immunoblotting (B) and Gβγ binding data fitted to a single-site competition curve (C). Mean±S.E.M. of 3 independent experiments. […] Control (shLuc) or two clones of DAPLE-depleted HeLa cell lines (shDAPLE 1 and 2) (described in FIGS. 10A & 10B) were incubated in 2% serum media (D) or starved and treated (+) or not (β) with Wnt5a ([…]) for 5 min (E) and analyzed for Rac1 activation by pulldown assays using GST-PBD. […] DAPLE-depleted (shDAPLE 1) HeLa cells transiently transfected with myc-DAPLE-WT or FA were starved and stimulated with Wnt5a and analyzed for Rac1 activation as in E. (G, H) DAPLE's GBA motif is required for activation of PI3K-Akt signaling in HeLa cells, as determined by phosphorylation of Akt at 5473. […]
Background: In western blotting, separated proteins are transferred to a membrane and probed.

Assay [6] concerns the target B3. In words: GST pulldown, purified proteins, inactive or active conformations (FIG. 1H). As for the experimental part: Equal aliquots of lysates of HEK293 cells expressing Gαi3-FLAG were incubated with anti-FLAG mAb or control IgG and protein G beads. Immune complexes were analyzed for DAPLE and Gαi3 (FLAG) by immunoblotting (IB). Gβ was monitored as positive Gαi3-binding control. […] Resin-bound proteins were eluted, separated by SDS-PAGE and analyzed by Ponceau S-staining and immunoblotting (IB) with the indicated antibodies. No binding to GST alone was detected. […] No binding of myc-DAPLE or Gβ to GST alone was detected. […] Insert, Purified GST-DAPLE-CT and GST-GIV (aa 1671-1755, containing the GBA motif) immobilized on glutathione-agarose beads were incubated with increasing amounts (0.01-3 μM) of purified His-Gαi3 (GDP-loaded) and binding analyzed by immunoblotting as described in (D). No binding to GST alone was detected at the highest His-Gαi3 concentration tested. Graph, Gαi3 binding was quantified by measuring band intensities and data fitted to a single-site binding hyperbola (DAPLE=BLUE, GIV=RED) to determine the equilibrium dissociation constants (Kd). Mean±S.E.M of 4 independent experiments. (G) DAPLE binds to all three Gαi subunits. […] (H) DAPLE selectively binds to Gαi, but not Gao.

Assay [7] addresses B1. In words: GST pulldown with 0.01-3 µM His-Gαi3, band intensities fitted to a one-site binding curve (FIG. 1F).

T1 sequence (P08515 whole entry): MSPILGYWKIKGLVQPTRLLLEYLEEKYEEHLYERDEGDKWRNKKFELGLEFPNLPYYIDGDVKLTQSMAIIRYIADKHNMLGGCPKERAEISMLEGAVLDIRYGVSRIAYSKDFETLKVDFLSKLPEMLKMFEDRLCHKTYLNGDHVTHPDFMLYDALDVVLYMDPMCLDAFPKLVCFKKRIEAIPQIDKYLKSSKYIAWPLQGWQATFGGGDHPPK

B1: the “fold increase of binding in the presence of DAPLE-CT WT” value in assay [1] was ~5 fold. Besides, binding in assay [2] was characterised by a dissociation constant (Kd) of 110 nM.
For the molecule B2, the binding result in assay [3] is “no binding”.
On to B3, for which, in assay [4], the “EC50 of the acceleration of Gαi3 steady-state GTPase activity” value stood at 250 nM and the “rate of steady-state GTP hydrolysis of His-Gαi3” value is ~3 fold. This molecule also returned an IC50 in assay [5] of 160 nM.
As to B4, the binding result in assay [6] is given as “no binding”.
B5: the Kd in assay [7] was determined as 240 nM.

For orientation: Kd means the concentration at which binding is half-saturated. What is called IC50 is the concentration that gives 50% inhibition. Read a high IC50 as lower potency.
